This assay concerns the target T1, albumin (serum) (human, UniProt P02768 25-609).
T1 construct: Present in the serum sample on the 2-D blot; also called unreactive albumin
The assay is described as follows: 2-D gel electrophoresis immunoblot of pooled cancer sera, scFv with anti-S alkaline phosphatase detection. The source says: FIG. 1 provides the results of analytical 2-D gel electrophoresis of ECTO-NOX enriched serum proteins from a preparation of sera pooled from cancer patients (breast, ovarian, lung and colon) concentrated by nickel agarose precipitation, followed by immunoblots analysis. Separation in the first dimension was by isoelectric focusing and in the second dimension by SDS-PAGE (using ampholytes over the pH range of 3 to 10 and 10% polyacrylamide gel). For interpretative purposes, the gel is divided into quadrants I-IV with unreactive albumin (albumin) at the center. Detection was with recombinant anti-tNOX single chain variable region (scFv) antibody (MAB 12.1 scFv) carrying an S-tag followed by alkaline phosphatase-liked anti S (Novagen cat. # 69598-3 or equivalent product) with Western Blue NBT substrate (Promega, Madison, Wis; Cat. No. S3841 or equivalent product). Reactive proteins appear reddish blue.
In general terms: Immunoblotting shows a protein as a band on a membrane.

T1 sequence (P02768 25-609 limits assumed): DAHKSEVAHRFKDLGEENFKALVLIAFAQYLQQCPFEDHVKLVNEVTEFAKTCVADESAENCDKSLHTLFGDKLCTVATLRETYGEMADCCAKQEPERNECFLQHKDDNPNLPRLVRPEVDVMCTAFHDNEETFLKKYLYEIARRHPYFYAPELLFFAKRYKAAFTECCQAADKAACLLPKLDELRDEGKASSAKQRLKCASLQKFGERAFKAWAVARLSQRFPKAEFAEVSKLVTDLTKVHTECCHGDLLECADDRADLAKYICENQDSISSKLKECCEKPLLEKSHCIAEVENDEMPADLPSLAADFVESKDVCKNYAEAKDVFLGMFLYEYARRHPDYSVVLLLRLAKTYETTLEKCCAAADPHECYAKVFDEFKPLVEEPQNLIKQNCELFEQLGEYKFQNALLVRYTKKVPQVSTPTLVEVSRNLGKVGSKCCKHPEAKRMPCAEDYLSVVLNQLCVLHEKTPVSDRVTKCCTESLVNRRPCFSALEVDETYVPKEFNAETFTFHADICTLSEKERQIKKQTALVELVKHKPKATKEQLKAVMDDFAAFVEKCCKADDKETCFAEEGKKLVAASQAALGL

B1: recombinant anti-tNOX single chain variable region (scFv) antibody (MAB 12.1 scFv) carrying an S-tag (scFv)
scFv: EVKLQESGTEVVKPGASVKLSCKASGYIFTSYDIDWVRQTPEQGLEWIGWIFPGEGSTEYNEKFKGRATLSVDKSSSTAYMELTRLTSEDSAVYFCARGDYYRRYFDLWGQGTTVTVSSGGGGSGGGGSGGGGSENVLTQSPAIMSASPGERVTMTCSASSSIRYIYWYQQKPGSSPRLLIYDTSNVAPGVPFRFSGSGSGTSYSLTINRMEAEDAATYYCQEWSGYPYTFGGGTKLELKAKETAAAKFERQHMDS
notes: Expressed in E. coli from pET11-ScFv(S) and renatured from inclusion bodies; also called ScFv(S); NTI ScFv MAB 12.1
Regarding B1, the binding result is on record as “no binding”.

(Values after US20090042209A1 (NOX TECHNOLOGIES, published 2009).)
